Variants at the floor of the assay were thinned out.
B1: TPR 5TU (parent)
chain: GGAUCUUCUCGAUCUAACAAAAAAGACAAAUCUGCCACAAAGCUUGAGAGCAUCUUCGGAUGCAGAGGCGGCAGCCUUCGGUGGCGCGAUAGCGCCAACGUUCUCAACUAUGACACGCAAAACGCGUGCUCCGUUGAAUGGAGUUUAUCAUG

Variants of: B1
Experiment: polymerase ribozyme fitness, log enrichment relative to wild type (log ratio); higher = more active; in vitro selection for triplet polymerase activity
Method in brief: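 Streptavidin-bead capture of gel-excised extended constructs, followed by RT-PCR, closed a single triplicate in vitro selection round. That round began by annealing PCR-built, transcribed mutant libraries of each subunit of a heterodimeric triplet polymerase ribozyme with a biotinylated primer, the partner subunit and triplets, then incubating them frozen at −7 °C. After Illumina sequencing of inputs and outputs, genotypes needed ≥10 input reads and ≥1 read per output. Fitness is the base-2 logarithm of genotype enrichment over wild-type enrichment, using inverse-variance-weighted replicate averages.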

Compared with GGAUCUUCUCGAUCUUACAAAAAAGACAAAUCUGCCACAAAGCUUGAGAGCAUCUUCGGAUGCAGAGGCGGCAGCCUUCGGUGGCGCGAUAGCGCCAACGUUCUCAACUAUGACACGCAAAACGCGUGAUCCGUUGAAUGGAGUUUAUCAUG [A16U C129A], GGAUCUUCUCGAUCUUACAAAAAAGACAAAUCUGCCACAAAGCUUGAGAGCAUGUUCGGAUGCAGAGGCGGCAGCCUUCGGUGGCGCGAUAGCGCCCACGUUCUCAACUAUGACAGGCAAAACUCGUGCUCCGUUGCAUGGAGUUUAUCAUG [A16U C54G A97C C116G G124U A137C] is lower in “polymerase ribozyme fitness (log ratio)” value: -3.81 for the first, no more than -4.2 for the second.

GGAUCUUCUCGAUCUUACAAAAAAGACAAAUCUGCCACAAAGCUUUAGAGCAUCUUCGCAUGCAGAGGCGGCAGCGUUCGGUGUUGCGAUAGCGCCAACGUCCUCAACUAUGACACGCAAAACGCGUGCUCCGUUGAUUGGAGUUUAUCAUG [A16U G46U G59C C76G G84U C85U U102C A138U] and GGAUCUUCUCGAUCUUACAAAAAAGACAAAUAUGGCACAAAGCUUGCGAGCAUCUUCCGAUGCAGAGACUGCAGCCUUCGGUGGCGCGAUAGCGCGAACGUUCUCAACUAUGACACGCAAAACGCCUGCUCCGUUGAAUGGAGUUUAUCAUG [A16U C32A C35G A47C G58C G68A G70U C96G G126C] cannot be ordered by “polymerase ribozyme fitness (log ratio)” value: no more than -4.2 for the first, no more than -4.2 for the second.

Compared with GGAUCUUCUCGAUCUUACAAAAAAGACAAAUCUGCCAUAAAGCUUGAGAGCAUCUUCGGCUGCAGAGGCGGCAGCCUUCUGUGGCGCGAUAGCGCCGACGUUCUCAACUAUGACACGCAAAACGCGUGCUCCGUUGAAUGGAGUUUAUCAUG [A16U C38U A60C G80U A97G], GGAUCUUCUCGAUCUUACAAAAAAGACAAAUCUGCCACAAAGCUUGAGAGCAUCUUAGGAUGCAGAGGCGGCAGCCUUCGGUGGCGCGAUAGCGCCAACGUUCUCAACUAUGACACGCAAAACGCGUGCUCCGUUGAAUGGAGUUUAUCAUG [A16U C57A] is higher in “polymerase ribozyme fitness (log ratio)” value: no more than -4.2 for the first, -1.96 for the second.

Going from GGAUCUUCUCGAUCUUACAAAAAAGACAAAUCUGCCACAAAGCUUGAGAGCAUCUUCGGAUGCAGAGGAGGCAGCCUUCGGUGGCGCGAUAGCGCCAACGUUCUCAACUAUGACACGCAAAACGCGUGCUCCGUUGAAUGGAGUGUAUCAUG [A16U C69A U145G] to GGAUCUUCUCGAUCUUACAAAAAAGAGAAUUCUGGCACAAAGCUUGAGAGCAUCUUCGGAUGCAGAGGCGGCAGCCUUCGGUAGCGCGAUAGCGCCAACGUUUUCAACUAUGACACGCAAAACGCGUGCUCCGUUGAAUGGAGUUUAUCAUG [A16U C27G A30U C35G G83A C103U], the “polymerase ribozyme fitness (log ratio)” value falls from -3.75 to no more than -4.2.

Compared with GGAUCUUCUCGAUCUUACAAAAAACACAAAUCUGCCACAAAGCUUGAGAGCCUCUUCGGAUGCAGAGGCGGCAGCCUUCGGUGGCGCGAUAGCGCUAACGUUCUCAACUAUGACACGCAAAACGCGUGCUCCGUUGAAUGGAGUUUAUCAUG [A16U G25C A52C C96U], GGAUCUUCUCGAUCUUACAAAAAAGACAAAUCUGCCACAAAGCUUGAGAGCAUCUUCGGAUGCAGAGGCGGCAGCCUUCGGUGGCGAGAUAGCGCCAACAUUCUCAACUAUGACACGCAAAACGCGUGCUCCGUUGAAUGGAGUUUAUCAUG [A16U C87A G100A] is lower in “polymerase ribozyme fitness (log ratio)” value: -4.11 for the first, no more than -4.2 for the second.

GGAUCUUCUCGAUCUUACAAAAAAGACAAAUCUGCCACAAAGCUUGAGAGAAUCUUCGGAUGCAGAGGCGGCGGCCUUCGGUGGUGCGAUAGCGCCAACGUUCUCAACUAUGACACGCAAACCGCGUGCUCCGUUGAAUGGAGUUUAUCAUG [A16U C51A A73G C85U A122C] and GGAUCUUCUCGAUCUUACAAAAAAGACAAAUCUGCCACAAAACUUGAGAGCAACUUCGGAUGCAGAGGCGGCAGCCUUCGGUGGUGCGAUAGCGCGAACGUUCUCAACUAUGACACGCACAACGCGUGCUCCGUUGAAUGGAGUUUAUCAUG [A16U G42A U53A C85U C96G A120C] cannot be ordered by “polymerase ribozyme fitness (log ratio)” value: no more than -4.2 for the first, no more than -4.2 for the second.

Compared with GGAUCUUCUCGAUCUUACAAAAAAGACAAAUCUGCCACAAAGCUUGAGAGCAUCUUCGGAUGCAGAGGCGGCAGCCUUCGGUGGCGCGAUAGCGCCAACGUUCUCAACUAUGACACGCAAAACGAGUGCUCCGUUGAAUGGAGUUUAUCAUG [A16U C125A], GGAUCUUCUCGAUCUUACAAAAAAGACAAAUCUGCCACAAAGCUUGAGAGCAUCUUCGGAUGCAGAGGCGGCAGCCUUCGGUGGCGCGAUAGCGCCAACGUUCUCAACUAUGACAAGCAAAACGCGUGCUCCGUUGAAUGGAGUUUAUCAUG [A16U C116A] is higher in “polymerase ribozyme fitness (log ratio)” value: -2.06 for the first, -0.257 for the second.

Going from GGAUCUUCUCGAUCUUACAAAAAAGACAAAUCUGUCACAAAGCUUGAGAGCAUCUUCGGAUGCAGAGGCGGCAGCCUUCGGUGGCGCGAUAUCGCCAACGUUCUCAACUAUGACAGGCAAAACGCGUGCUCCGUUGAAUGGAGUUUAUCAUG [A16U C35U G92U C116G] to GGAUCUUCUCGAUCUUACAAAAAAGACAAAUCUGCCACAAAGCUUGAGAACAUCUUCGGCUGCAGAGGCGGCAGCCUUCGGUCGCGCGAUAGCGCCAACGUUCUCAACUAUGACACGCAAAACGCGUGCUCCGUUGAAUGCAGUUUAUCAUG [A16U G50A A60C G83C G141C], the “polymerase ribozyme fitness (log ratio)” value falls from -3.21 to no more than -4.2.

First: GGAUCUUCUCGAUCUUACAAAAAAGACAAAUCUGCCACAAAGCUUGAGACCAUCUACGGAUGCAGAGGCGGCAGCCUUCGGUGCCGCGAUAGCGCCUACGAUCUCAACUAUGCCACGCGAAACGCGUGCUCCUUUGUAUGGAGUUUAUCAUG [A16U G50C U56A G84C A97U U101A A113C A119G G133U A137U]
Second: GGAUCUUCUCGAUCUUACAAAAAAGACAAAUCUGCCACAAAGCUUGAGAGUAUCUUCGGAUGCAGAGGCGGCAGCCUUCGGUGGCGCGAUAGCGUCAACGUUCUCAACUAUGACACGCAAAACGCGUGCUCCGUUGAAUGGAGUUUAUCAUG [A16U C51U C95U]
The “polymerase ribozyme fitness (log ratio)” value of the first is lower: no more than -4.2 for the first, -2.98 for the second.

With GGAUCUUCUCGAUCUUACAAAAAAGACAAAUCUGCCACAAAGCUUGAGAGCAUAUUCGGAUGCAGAGGCGGCAGCCUUCGAUGGUGCGAUAGCGCCAACGUUCUCAACUAUGAUACGCAAAACGCGUGCUCCGUUUAAUGGAUUUUAUGAUG [A16U C54A G81A C85U C114U G136U G143U C149G] the “polymerase ribozyme fitness (log ratio)” value was no more than -4.2.

— the RNAGym collection of RNA variant scans (doi:10.1073/pnas.2313332121)
